Experimental data published in the supplement of paper PMC10065799, “High-throughput profiling of sequence recognition by tyrosine kinases and SH2 domains using bacterial peptide display” (eLife, 2023).

Legend:
AncSZ = assay: phosphorylation enrichment, bacterial display (enrichment ratio); higher = better substrate or ligand; peptides without Tyr show the background
EPHB2 = EPHB2 (UniProt P29323); assay: as above
Fer (mouse) = assay: as above
Hck = Hck (UniProt P08631); assay: as above
EPHB1 = EPHB1 (UniProt P54762); assay: as above
FGFR1 = FGFR1 (UniProt P11362); assay: as above
Fes = Fes (UniProt P07332); assay: as above
c-Src = assay: as above
MERTK = MERTK (UniProt Q12866); assay: as above
c-Abl (mouse) = assay: as above
FGFR3 = FGFR3 (UniProt P22607); assay: as above
Fyn = Fyn (UniProt P06241); assay: as above
Jak2 = Jak2 (UniProt O60674); assay: as above
SHP2-C SH2 = assay: SH2 binding enrichment of the phosphorylated peptide, bacterial display (enrichment ratio); higher = better substrate or ligand; peptides without Tyr show the background
c-Src SH2 = assay: as above
Grb2 SH2 = Grb2 SH2 (UniProt P62993); assay: as above
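For SH2 binding enrichment of the phosphorylated peptide, bacterial display in this document: peptide library displayed on the E. coli surface as eCPX fusions, selected cells deep-sequenced, score is each peptide's frequency after selection divided by its frequency in the input.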
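For phosphorylation enrichment, bacterial display in this document: 11-residue human phosphosite peptides and single-mutation variants displayed on the E. coli surface, counted by deep sequencing, each peptide's frequency after selection divided by its frequency in the unselected input library; frequency after pTyr selection over input frequency; kinase dosed for 20-30% of maximal phosphorylation in three min.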

Sequence of Hck (P08631 whole entry, looked up): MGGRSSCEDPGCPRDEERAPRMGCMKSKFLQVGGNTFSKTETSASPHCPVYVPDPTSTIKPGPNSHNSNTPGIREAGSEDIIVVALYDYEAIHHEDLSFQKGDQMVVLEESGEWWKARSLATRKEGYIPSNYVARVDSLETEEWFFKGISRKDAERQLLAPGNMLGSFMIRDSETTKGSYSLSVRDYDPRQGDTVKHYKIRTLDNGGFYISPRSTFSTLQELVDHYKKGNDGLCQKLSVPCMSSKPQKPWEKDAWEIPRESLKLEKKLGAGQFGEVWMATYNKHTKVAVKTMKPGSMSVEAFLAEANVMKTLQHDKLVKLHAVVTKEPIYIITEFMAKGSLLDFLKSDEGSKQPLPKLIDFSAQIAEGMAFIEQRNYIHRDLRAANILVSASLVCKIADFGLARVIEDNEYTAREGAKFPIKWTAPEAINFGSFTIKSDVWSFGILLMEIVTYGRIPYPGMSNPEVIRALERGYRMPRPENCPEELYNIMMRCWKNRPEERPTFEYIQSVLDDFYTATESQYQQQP
Sequence of FGFR1 (P11362 whole entry, looked up): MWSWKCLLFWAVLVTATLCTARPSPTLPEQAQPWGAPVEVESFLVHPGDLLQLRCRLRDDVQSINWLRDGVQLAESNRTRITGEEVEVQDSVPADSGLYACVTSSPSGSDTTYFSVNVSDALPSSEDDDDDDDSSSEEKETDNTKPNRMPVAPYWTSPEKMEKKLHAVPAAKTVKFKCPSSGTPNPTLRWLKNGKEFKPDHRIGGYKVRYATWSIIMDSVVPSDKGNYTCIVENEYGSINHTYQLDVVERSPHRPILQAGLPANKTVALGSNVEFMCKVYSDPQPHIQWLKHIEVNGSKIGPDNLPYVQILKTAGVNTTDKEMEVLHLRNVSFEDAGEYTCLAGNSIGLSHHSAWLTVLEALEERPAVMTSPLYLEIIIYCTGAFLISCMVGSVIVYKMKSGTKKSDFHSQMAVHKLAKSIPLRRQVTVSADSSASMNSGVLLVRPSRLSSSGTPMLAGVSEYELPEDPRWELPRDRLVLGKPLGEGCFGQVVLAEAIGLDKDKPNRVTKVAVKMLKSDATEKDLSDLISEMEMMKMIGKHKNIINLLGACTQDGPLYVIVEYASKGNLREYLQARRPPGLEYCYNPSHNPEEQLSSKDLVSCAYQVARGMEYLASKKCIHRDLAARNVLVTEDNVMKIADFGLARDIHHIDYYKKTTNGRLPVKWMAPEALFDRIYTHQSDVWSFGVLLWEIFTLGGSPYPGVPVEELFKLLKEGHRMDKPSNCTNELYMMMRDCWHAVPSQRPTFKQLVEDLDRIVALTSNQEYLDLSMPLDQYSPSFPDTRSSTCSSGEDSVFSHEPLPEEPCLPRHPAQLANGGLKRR
Sequence of EPHB2 (P29323 whole entry, looked up): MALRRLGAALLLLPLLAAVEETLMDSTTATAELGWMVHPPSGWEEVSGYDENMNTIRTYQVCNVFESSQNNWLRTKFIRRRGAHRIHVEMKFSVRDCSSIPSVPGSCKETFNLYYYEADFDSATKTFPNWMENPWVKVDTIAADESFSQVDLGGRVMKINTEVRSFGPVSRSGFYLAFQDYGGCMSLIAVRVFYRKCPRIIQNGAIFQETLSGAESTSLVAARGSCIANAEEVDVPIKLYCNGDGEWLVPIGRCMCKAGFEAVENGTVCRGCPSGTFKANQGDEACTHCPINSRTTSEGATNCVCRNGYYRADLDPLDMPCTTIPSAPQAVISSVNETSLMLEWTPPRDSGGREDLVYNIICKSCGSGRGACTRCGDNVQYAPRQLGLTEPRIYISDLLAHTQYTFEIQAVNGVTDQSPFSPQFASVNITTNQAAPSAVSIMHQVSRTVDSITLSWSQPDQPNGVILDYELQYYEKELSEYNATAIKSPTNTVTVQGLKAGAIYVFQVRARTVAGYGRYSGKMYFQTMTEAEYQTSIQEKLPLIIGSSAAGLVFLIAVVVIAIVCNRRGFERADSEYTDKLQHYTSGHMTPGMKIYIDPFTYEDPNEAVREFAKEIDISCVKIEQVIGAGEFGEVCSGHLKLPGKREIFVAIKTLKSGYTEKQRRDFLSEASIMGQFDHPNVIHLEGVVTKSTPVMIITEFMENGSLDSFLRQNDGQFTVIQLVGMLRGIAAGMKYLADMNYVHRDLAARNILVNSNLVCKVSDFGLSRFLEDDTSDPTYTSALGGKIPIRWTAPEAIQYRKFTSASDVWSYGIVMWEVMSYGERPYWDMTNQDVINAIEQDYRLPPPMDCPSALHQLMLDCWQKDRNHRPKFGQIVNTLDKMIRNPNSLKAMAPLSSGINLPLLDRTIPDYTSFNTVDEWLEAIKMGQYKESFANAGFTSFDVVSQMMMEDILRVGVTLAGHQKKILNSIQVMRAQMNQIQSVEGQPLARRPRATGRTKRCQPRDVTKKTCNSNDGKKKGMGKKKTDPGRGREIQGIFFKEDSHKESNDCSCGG
Sequence of Fyn (P06241 whole entry, looked up): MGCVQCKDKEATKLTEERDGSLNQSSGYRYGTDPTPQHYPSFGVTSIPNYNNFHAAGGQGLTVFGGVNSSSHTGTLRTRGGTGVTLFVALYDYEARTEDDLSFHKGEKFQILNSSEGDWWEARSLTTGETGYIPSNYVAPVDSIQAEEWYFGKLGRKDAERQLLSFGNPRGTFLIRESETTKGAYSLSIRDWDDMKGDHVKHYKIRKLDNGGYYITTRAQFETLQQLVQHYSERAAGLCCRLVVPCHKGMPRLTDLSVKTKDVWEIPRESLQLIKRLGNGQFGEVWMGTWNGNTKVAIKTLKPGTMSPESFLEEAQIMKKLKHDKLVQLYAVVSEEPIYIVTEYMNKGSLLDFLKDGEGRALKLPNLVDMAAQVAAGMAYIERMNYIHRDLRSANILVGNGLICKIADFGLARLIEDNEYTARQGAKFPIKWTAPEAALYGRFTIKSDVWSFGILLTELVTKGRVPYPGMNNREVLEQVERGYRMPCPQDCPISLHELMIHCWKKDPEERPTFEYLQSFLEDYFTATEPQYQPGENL
Sequence of MERTK (Q12866 whole entry, looked up): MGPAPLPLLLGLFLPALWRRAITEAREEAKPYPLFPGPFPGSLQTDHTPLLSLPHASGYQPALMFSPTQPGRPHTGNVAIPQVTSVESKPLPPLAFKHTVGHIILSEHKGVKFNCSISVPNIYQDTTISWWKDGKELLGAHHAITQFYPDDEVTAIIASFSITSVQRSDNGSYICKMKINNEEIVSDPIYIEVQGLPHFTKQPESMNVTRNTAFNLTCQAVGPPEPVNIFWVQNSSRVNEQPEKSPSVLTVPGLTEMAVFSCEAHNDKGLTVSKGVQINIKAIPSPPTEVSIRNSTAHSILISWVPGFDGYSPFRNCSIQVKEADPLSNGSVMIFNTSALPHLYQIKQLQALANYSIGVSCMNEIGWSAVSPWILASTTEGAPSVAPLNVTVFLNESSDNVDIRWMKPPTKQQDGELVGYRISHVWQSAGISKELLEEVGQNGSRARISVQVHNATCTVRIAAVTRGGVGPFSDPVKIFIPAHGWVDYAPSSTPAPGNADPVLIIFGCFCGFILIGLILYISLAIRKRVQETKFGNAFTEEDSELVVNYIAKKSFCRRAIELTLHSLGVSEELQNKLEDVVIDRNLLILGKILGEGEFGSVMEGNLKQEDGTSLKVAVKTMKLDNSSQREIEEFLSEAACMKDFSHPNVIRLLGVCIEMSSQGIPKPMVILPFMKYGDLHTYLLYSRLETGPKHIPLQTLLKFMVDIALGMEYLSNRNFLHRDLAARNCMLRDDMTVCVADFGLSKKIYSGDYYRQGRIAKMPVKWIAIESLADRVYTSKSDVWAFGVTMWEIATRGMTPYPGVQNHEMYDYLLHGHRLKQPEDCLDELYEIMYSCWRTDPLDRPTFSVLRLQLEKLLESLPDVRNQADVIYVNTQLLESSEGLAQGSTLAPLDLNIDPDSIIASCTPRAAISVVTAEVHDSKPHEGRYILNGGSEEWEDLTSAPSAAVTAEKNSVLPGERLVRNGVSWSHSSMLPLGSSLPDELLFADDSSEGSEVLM
Sequence of Grb2 SH2 (P62993 whole entry, looked up, the tested form may be a part): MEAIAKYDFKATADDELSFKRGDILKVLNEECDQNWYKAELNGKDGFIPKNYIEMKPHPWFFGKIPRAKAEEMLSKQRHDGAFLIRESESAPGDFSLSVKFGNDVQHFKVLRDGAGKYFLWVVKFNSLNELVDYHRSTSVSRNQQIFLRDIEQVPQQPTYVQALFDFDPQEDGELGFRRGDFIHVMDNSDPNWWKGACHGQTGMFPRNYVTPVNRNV
Sequence of Fes (P07332 whole entry, looked up): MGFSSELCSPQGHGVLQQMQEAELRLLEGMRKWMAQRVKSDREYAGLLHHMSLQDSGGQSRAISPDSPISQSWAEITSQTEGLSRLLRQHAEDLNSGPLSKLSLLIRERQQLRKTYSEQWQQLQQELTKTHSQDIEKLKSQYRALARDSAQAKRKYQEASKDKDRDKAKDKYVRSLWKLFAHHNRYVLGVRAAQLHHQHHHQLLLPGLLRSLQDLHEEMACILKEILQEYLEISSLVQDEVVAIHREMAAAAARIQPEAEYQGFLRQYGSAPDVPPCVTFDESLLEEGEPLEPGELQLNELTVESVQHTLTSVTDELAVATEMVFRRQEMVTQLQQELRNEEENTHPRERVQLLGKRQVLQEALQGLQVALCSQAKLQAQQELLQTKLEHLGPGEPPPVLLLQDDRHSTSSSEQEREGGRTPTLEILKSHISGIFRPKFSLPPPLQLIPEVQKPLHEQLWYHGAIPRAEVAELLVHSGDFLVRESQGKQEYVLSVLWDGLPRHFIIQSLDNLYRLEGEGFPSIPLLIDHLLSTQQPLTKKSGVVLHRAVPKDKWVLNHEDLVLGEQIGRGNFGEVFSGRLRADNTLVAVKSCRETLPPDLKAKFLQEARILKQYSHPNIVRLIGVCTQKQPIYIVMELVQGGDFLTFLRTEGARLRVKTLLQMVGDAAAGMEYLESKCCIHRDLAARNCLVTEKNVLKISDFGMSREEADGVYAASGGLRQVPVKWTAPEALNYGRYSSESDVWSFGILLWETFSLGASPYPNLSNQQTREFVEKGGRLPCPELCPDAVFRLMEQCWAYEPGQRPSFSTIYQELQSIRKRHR

Sequence | phosphorylation enrichment (AncSZ) | phosphorylation enrichment (EPHB2) | phosphorylation enrichment (Fer (mouse)) | phosphorylation enrichment (Hck) | phosphorylation enrichment (EPHB1) | phosphorylation enrichment (FGFR1) | phosphorylation enrichment (Fes) | phosphorylation enrichment (c-Src) | phosphorylation enrichment (MERTK) | phosphorylation enrichment (c-Abl (mouse)) | phosphorylation enrichment (FGFR3) | phosphorylation enrichment (Fyn) | phosphorylation enrichment (Jak2) | SH2 binding enrichment (SHP2-C SH2) | SH2 binding enrichment (c-Src SH2) | SH2 binding enrichment (Grb2 SH2)
ETMNKYHLSGR [MYEF2_Y164_D165H] | 0.539 | 0.355 | 0.357 | 0.467 | 0.332 | 0.432 | 0.53 | 0.375 | 0.385 | 0.398 | 0.367 | 0.343 | 0.422 | 0.627 | 0.426 | 0.667
EVASVYQSFQP [MAVS_Y92_YF] | 1.22 | 0.846 | 5.55 | 11 | 0.785 | 0.604 | 1.2 | 8.85 | 2.03 | 2.19 | 0.991 | 13.6 | 1.06 | 0.661 | 0.507 | 0.961
EVNETYVPKEF [ALB_Y521_D518N] | 1.19 | 0.543 | 0.518 | 0.534 | 0.584 | 0.524 | 1.26 | 0.523 | 0.477 | 0.851 | 0.796 | 0.564 | 1.19 | 0.501 | 0.404 | 0.759
EVNQDYGLDPK [FH_Y110] | 1.31 | 0.546 | 0.519 | 0.596 | 0.631 | 0.572 | 1.29 | 0.466 | 0.443 | 0.765 | 0.837 | 0.604 | 1.17 | 0.581 | 0.508 | 0.807
EVQKNYEHLFK [PAM16_Y77] | 0.706 | 0.479 | 0.436 | 0.438 | 0.57 | 0.4 | 0.715 | 0.359 | 0.318 | 0.632 | 0.517 | 0.398 | 0.8 | 0.77 | 0.634 | 0.897
EYITRYIASLK [PSMA7_Y110] | 0.708 | 0.416 | 0.414 | 0.51 | 0.498 | 0.456 | 0.717 | 0.477 | 0.499 | 0.569 | 0.415 | 0.416 | 0.526 | 1.46 | 0.57 | 1.05
EYQLPYYNMVP [BMPR1A_Y457] | 6.15 | 3.64 | 5.56 | 3.23 | 2.81 | 14.1 | 1.12 | 5.13 | 7.06 | 3 | 11.9 | 3.83 | 9.58 | 1.87 | 3.74 | 9.58
FAANFYKLLGN [ROR2_Y646_D644N_YF] | 0.898 | 0.462 | 0.347 | 0.464 | 0.476 | 0.425 | 0.986 | 0.46 | 0.419 | 0.726 | 0.512 | 0.365 | 0.924 | 0.453 | 0.468 | 0.676
FADIAYNYRRG [PAH_Y166_H170R] | 0.638 | 0.458 | 0.329 | 0.452 | 0.493 | 0.39 | 0.702 | 0.511 | 0.429 | 0.502 | 0.449 | 0.466 | 0.529 | 0.583 | 0.427 | 0.699
FAELVYTVFWH [ASS1_Y322_G324V] | 2.15 | 2.94 | 6.19 | 5.47 | 2.33 | 4.39 | 1.63 | 7.17 | 8.06 | 12.5 | 3.34 | 7.64 | 2.27 | 1.05 | 0.713 | 1.1
FARNCYVAGQY [G6PD_Y107_S106C] | 1.08 | 0.526 | 0.511 | 0.524 | 0.55 | 0.443 | 1.07 | 0.469 | 0.49 | 0.83 | 0.641 | 0.437 | 0.889 | 0.707 | 0.469 | 0.709
FASAEYQEALS [GALNS_Y461] | 0.949 | 0.466 | 0.369 | 0.481 | 0.454 | 0.482 | 0.858 | 0.485 | 0.348 | 0.505 | 0.618 | 0.454 | 0.759 | 0.598 | 0.569 | 0.734
FDDIANIRKTL [PIK3CA_Y1021_Y1021N] | 0.873 | 0.452 | 0.459 | 0.275 | 0.525 | 0.652 | 0.746 | 0.416 | 0.386 | 0.813 | 0.513 | 0.465 | 0.496 | 0.635 | 0.547 | 0.858
FDDIAYIRKAL [PIK3CA_Y1021_T1025A] | 0.708 | 0.448 | 0.387 | 0.495 | 0.361 | 0.358 | 0.685 | 0.436 | 0.454 | 0.5 | 0.461 | 0.427 | 0.52 | 0.607 | 0.39 | 0.787
FDDIAYIRKTL [PIK3CA_Y1021] | 0.75 | 0.481 | 0.411 | 0.469 | 0.469 | 0.456 | 0.878 | 0.449 | 0.474 | 0.62 | 0.496 | 0.514 | 0.835 | 0.565 | 0.483 | 0.683
